Experimental data from paper PMC5036782 (Biophysics, 2011).

Key:
Assay in all cases: NMR titration; 1H-13C HSQC of selectively [13C]-methyl-Met labelled CaM or variant, Ca2+-bound form compared with the complex with skMLCKp; 20 mM phosphate, 100 mM KCl, 10 mM CaCl2, pH 7.0, 25°C, about 0.6 mM protein, 800 MHz
Conditions in all cases: both partners purified
[1] = target: CCMΔ5, chicken calmodulin lacking the last five residues (M144 to K148) (chicken, UniProt P62149 1-144)
[2] = target: CCMΔ4, chicken calmodulin lacking the last four residues (M145 to K148) (chicken, UniProt P62149 1-145)
[3] = target: intact chicken calmodulin (CCM0) (chicken, UniProt P62149 1-149)

Measured: binding result

KRRWKKNFIAVSAANRFKKISSSGAL
binds: all assays above
